{
  "source": "patent US10702592B2",
  "about": "“Peptides and combination of peptides for use in immunotherapy against NHL and other cancers” (Immatics Biotechnologies GmbH, priority 2016, dated 2020)",
  "data": [
    {"biological_target": "HLA-A*02:01 (Homo sapiens, UniProt P04439, D140Y/D185E/D98H/E176V/E277Q/G131W/G231S/I119V/I121R/I166T/I218V/L300P/L318F/N151K/N90K/P208A/P217A/Q86G/Q94H/R138H/R169H/T345S)", "assay": "MHC binding assay (UV-ligand exchange, beta2m ELISA)", "conditions": "binding to HLA-A*02:01, UV-ligand exchange", "text": "Candidate peptides for T cell based therapies according to the present invention were further tested for their MHC binding capacity (affinity). The individual peptide-MHC complexes were produced by UV-ligand exchange, where a UV-sensitive peptide is cleaved upon UV-irradiation, and exchanged with the peptide of interest as analyzed. Only peptide candidates that can effectively bind and stabilize the peptide-receptive MHC molecules prevent dissociation of the MHC complexes. To determine the yield of the exchange reaction, an ELISA was performed based on the detection of the light chain (β2m) of stabilized MHC complexes. The assay was performed as generally described in Rodenko et al. (Rodenko et al., 2006).\n96 well MAXISorp plates (NUNC) were coated over night with 2 ug/ml streptavidin in PBS at room temperature, washed 4× and blocked for 1 h at 37° C. in 2% BSA containing blocking buffer. Refolded HLA-A*02:01/MLA-001 monomers served as standards, covering the range of 15-500 ng/ml. Peptide-MHC monomers of the UV-exchange reaction were diluted 100 fold in blocking buffer. Samples were incubated for 1 h at 37° C., washed four times, incubated with 2 ug/ml HRP conjugated anti-β2m for 1 h at 37° C., washed again and detected with TMB solution that is stopped with […]. Absorption was measured at 450 nm. Candidate peptides that show a high exchange yield (preferably higher than 50%, most preferred higher than 75%) are generally preferred for a generation and production of antibodies or fragments thereof, and/or T cell receptors or fragments thereof, as they show sufficient avidity to the MHC molecules and prevent dissociation of the MHC complexes.", "values": [
      {"substance": "103 (SLQDHLEKV; listed as Homo sapiens) [compound 103]", "Peptide exchange (MHC class I binding score, peptide exchange yield)": "“+++” (≥50 = +++)"},
      {"substance": "104 (VLLGLPLLV; listed as Homo sapiens) [compound 104]", "Peptide exchange (MHC class I binding score, peptide exchange yield)": "“+++” (≥50 = +++)"},
      {"substance": "105 (VLTPVILQV; listed as Homo sapiens) [compound 105]", "Peptide exchange (MHC class I binding score, peptide exchange yield)": "“+++” (≥50 = +++)"},
      {"substance": "106 (VLYELLQYI; listed as Homo sapiens) [compound 106]", "Peptide exchange (MHC class I binding score, peptide exchange yield)": "“++++” (≥75% = ++++)"},
      {"substance": "107 (VQAVSIPEV; listed as Homo sapiens) [compound 107]", "Peptide exchange (MHC class I binding score, peptide exchange yield)": "“+++” (≥50 = +++)"},
      {"substance": "108 (YLAPENGYLM; listed as Homo sapiens) [compound 108]", "Peptide exchange (MHC class I binding score, peptide exchange yield)": "“+++” (≥50 = +++)"},
      {"substance": "109 (YLFQFSAAL; listed as Homo sapiens) [compound 109]", "Peptide exchange (MHC class I binding score, peptide exchange yield)": "“+++” (≥50 = +++)"},
      {"substance": "110 (YQYPFVLGL; listed as Homo sapiens) [compound 110]", "Peptide exchange (MHC class I binding score, peptide exchange yield)": "“++++” (≥75% = ++++)"},
      {"substance": "111 (YLLDTLLSL; listed as Homo sapiens) [compound 111]", "Peptide exchange (MHC class I binding score, peptide exchange yield)": "“+++” (≥50 = +++)"},
      {"substance": "112 (FLAILPEEV; listed as Homo sapiens) [compound 112]", "Peptide exchange (MHC class I binding score, peptide exchange yield)": "“+++” (≥50 = +++)"},
      {"substance": "113 (FVIDSFEEL; listed as Homo sapiens) [compound 113]", "Peptide exchange (MHC class I binding score, peptide exchange yield)": "“+++” (≥50 = +++)"},
      {"substance": "114 (GLSDISPST; listed as Homo sapiens) [compound 114]", "Peptide exchange (MHC class I binding score, peptide exchange yield)": "“++” (≥20% = ++)"},
      {"substance": "115 (LLIDIIHFL; listed as Homo sapiens) [compound 115]", "Peptide exchange (MHC class I binding score, peptide exchange yield)": "“++++” (≥75% = ++++)"},
      {"substance": "116 (SLLDNLLTI; listed as Homo sapiens) [compound 116]", "Peptide exchange (MHC class I binding score, peptide exchange yield)": "“+++” (≥50 = +++)"},
      {"substance": "117 (VLATILAQL; listed as Homo sapiens) [compound 117]", "Peptide exchange (MHC class I binding score, peptide exchange yield)": "“++++” (≥75% = ++++)"},
      {"substance": "118 (VLDGMIYAI; listed as Homo sapiens) [compound 118]", "Peptide exchange (MHC class I binding score, peptide exchange yield)": "“+++” (≥50 = +++)"},
      {"substance": "119 (ELCDIILRV; listed as Homo sapiens) [compound 119]", "Peptide exchange (MHC class I binding score, peptide exchange yield)": "“+++” (≥50 = +++)"},
      {"substance": "120 (VLLGTTWAL; listed as Homo sapiens) [compound 120]", "Peptide exchange (MHC class I binding score, peptide exchange yield)": "“+++” (≥50 = +++)"},
      {"substance": "121 (YLTGYNFTL; listed as Homo sapiens) [compound 121]", "Peptide exchange (MHC class I binding score, peptide exchange yield)": "“+++” (≥50 = +++)"},
      {"substance": "122 (AISEAQESV; listed as Homo sapiens) [compound 122]", "Peptide exchange (MHC class I binding score, peptide exchange yield)": "“++” (≥20% = ++)"},
      {"substance": "123 (ALLSAFVQL; listed as Homo sapiens) [compound 123]", "Peptide exchange (MHC class I binding score, peptide exchange yield)": "“+++” (≥50 = +++)"},
      {"substance": "124 (FLGVVVPTV; listed as Homo sapiens) [compound 124]", "Peptide exchange (MHC class I binding score, peptide exchange yield)": "“+++” (≥50 = +++)"},
      {"substance": "125 (FVAPPTAAV; listed as Homo sapiens) [compound 125]", "Peptide exchange (MHC class I binding score, peptide exchange yield)": "“+++” (≥50 = +++)"},
      {"substance": "127 (HLMEENMIVYV; listed as Homo sapiens) [compound 127]", "Peptide exchange (MHC class I binding score, peptide exchange yield)": "“+++” (≥50 = +++)"},
      {"substance": "128 (KLFDASPTFFA; listed as Homo sapiens) [compound 128]", "Peptide exchange (MHC class I binding score, peptide exchange yield)": "“+++” (≥50 = +++)"},
      {"substance": "129 (SLFEASQQL; listed as Homo sapiens) [compound 129]", "Peptide exchange (MHC class I binding score, peptide exchange yield)": "“+++” (≥50 = +++)"},
      {"substance": "130 (VIFSYVLGV; listed as Homo sapiens) [compound 130]", "Peptide exchange (MHC class I binding score, peptide exchange yield)": "“+++” (≥50 = +++)"},
      {"substance": "131 (VLIEETDQL; listed as Homo sapiens) [compound 131]", "Peptide exchange (MHC class I binding score, peptide exchange yield)": "“++” (≥20% = ++)"},
      {"substance": "132 (VLQDQVDEL; listed as Homo sapiens) [compound 132]", "Peptide exchange (MHC class I binding score, peptide exchange yield)": "“++” (≥20% = ++)"},
      {"substance": "133 (ALEELTGFREL; listed as Homo sapiens) [compound 133]", "Peptide exchange (MHC class I binding score, peptide exchange yield)": "“++” (≥20% = ++)"},
      {"substance": "134 (ALGRLGILSV; listed as Homo sapiens) [compound 134]", "Peptide exchange (MHC class I binding score, peptide exchange yield)": "“+++” (≥50 = +++)"},
      {"substance": "135 (ALTGLQFQL; listed as Homo sapiens) [compound 135]", "Peptide exchange (MHC class I binding score, peptide exchange yield)": "“+++” (≥50 = +++)"},
      {"substance": "136 (FIFGIVHLL; listed as Homo sapiens) [compound 136]", "Peptide exchange (MHC class I binding score, peptide exchange yield)": "“+++” (≥50 = +++)"},
      {"substance": "137 (FIQQERFFL; listed as Homo sapiens) [compound 137]", "Peptide exchange (MHC class I binding score, peptide exchange yield)": "“+++” (≥50 = +++)"},
      {"substance": "138 (NLINNIFEL; listed as Homo sapiens) [compound 138]", "Peptide exchange (MHC class I binding score, peptide exchange yield)": "“++++” (≥75% = ++++)"},
      {"substance": "139 (FLASPLVAI; listed as Homo sapiens) [compound 139]", "Peptide exchange (MHC class I binding score, peptide exchange yield)": "“++++” (≥75% = ++++)"},
      {"substance": "140 (FLFEDFVEV; listed as Homo sapiens) [compound 140]", "Peptide exchange (MHC class I binding score, peptide exchange yield)": "“+++” (≥50 = +++)"},
      {"substance": "141 (FLGELTLQL; listed as Homo sapiens) [compound 141]", "Peptide exchange (MHC class I binding score, peptide exchange yield)": "“+++” (≥50 = +++)"},
      {"substance": "142 (FLYEDSKSVRL; listed as Homo sapiens) [compound 142]", "Peptide exchange (MHC class I binding score, peptide exchange yield)": "“+++” (≥50 = +++)"},
      {"substance": "143 (TLHAVDVTL; listed as Homo sapiens) [compound 143]", "Peptide exchange (MHC class I binding score, peptide exchange yield)": "“+++” (≥50 = +++)"},
      {"substance": "144 (GLITQVDKL; listed as Homo sapiens) [compound 144]", "Peptide exchange (MHC class I binding score, peptide exchange yield)": "“+++” (≥50 = +++)"},
      {"substance": "145 (GLLHEVVSL; listed as Homo sapiens) [compound 145]", "Peptide exchange (MHC class I binding score, peptide exchange yield)": "“+++” (≥50 = +++)"},
      {"substance": "146 (GLLQQPPAL; listed as Homo sapiens) [compound 146]", "Peptide exchange (MHC class I binding score, peptide exchange yield)": "“+++” (≥50 = +++)"},
      {"substance": "147 (GLSEYQRNFL; listed as Homo sapiens) [compound 147]", "Peptide exchange (MHC class I binding score, peptide exchange yield)": "“+++” (≥50 = +++)"},
      {"substance": "148 (ICAGHVPGV; listed as Homo sapiens) [compound 148]", "Peptide exchange (MHC class I binding score, peptide exchange yield)": "“+++” (≥50 = +++)"},
      {"substance": "149 (ILNPVTTKL; listed as Homo sapiens) [compound 149]", "Peptide exchange (MHC class I binding score, peptide exchange yield)": "“+++” (≥50 = +++)"},
      {"substance": "150 (ILSEKEYKL; listed as Homo sapiens) [compound 150]", "Peptide exchange (MHC class I binding score, peptide exchange yield)": "“+++” (≥50 = +++)"},
      {"substance": "151 (ILVKQSPML; listed as Homo sapiens) [compound 151]", "Peptide exchange (MHC class I binding score, peptide exchange yield)": "“+++” (≥50 = +++)"},
      {"substance": "152 (KIMYTLVSV; listed as Homo sapiens) [compound 152]", "Peptide exchange (MHC class I binding score, peptide exchange yield)": "“++” (≥20% = ++)"},
      {"substance": "153 (KLLKGIYAI; listed as Homo sapiens) [compound 153]", "Peptide exchange (MHC class I binding score, peptide exchange yield)": "“+++” (≥50 = +++)"},
      {"substance": "154 (KLMNIQQQL; listed as Homo sapiens) [compound 154]", "Peptide exchange (MHC class I binding score, peptide exchange yield)": "“+++” (≥50 = +++)"},
      {"substance": "155 (KLMTSLVKV; listed as Homo sapiens) [compound 155]", "Peptide exchange (MHC class I binding score, peptide exchange yield)": "“+++” (≥50 = +++)"},
      {"substance": "156 (KMLEDDLKL; listed as Homo sapiens) [compound 156]", "Peptide exchange (MHC class I binding score, peptide exchange yield)": "“+++” (≥50 = +++)"},
      {"substance": "157 (KVLEFLAKV; listed as Homo sapiens) [compound 157]", "Peptide exchange (MHC class I binding score, peptide exchange yield)": "“+++” (≥50 = +++)"},
      {"substance": "158 (KVQDVLHQV; listed as Homo sapiens) [compound 158]", "Peptide exchange (MHC class I binding score, peptide exchange yield)": "“+++” (≥50 = +++)"},
      {"substance": "159 (LLLSDSGFYL; listed as Homo sapiens) [compound 159]", "Peptide exchange (MHC class I binding score, peptide exchange yield)": "“+++” (≥50 = +++)"}
    ]}
  ]
}
